Measured values as given in IntAct's records for PubMed 26068854.

B1: Kinetochore protein Nuf2 (Homo sapiens), Q9BZD4 (parent)
chain: METLSFPRYNVAEIVIHIRNKILTGADGKNLTKNDLYPNPKPEVLHMIYMRALQIVYGIRLEHFYMMPVNSEVMYPHLMEGFLPFSNLVTHLDSFLPICRVNDFETADILCPKAKRTSRFLSGIINFIHFREACRETYMEFLWQYKSSADKMQQLNAAHQEALMKLERLDSVPVEEQEEFKQLSDGIQELQQSLNQDFHQKTIVLQEGNSQKKSNISEKTKRLNELKLSVVSLKEIQESLKTKIVDSPEKLKNYKEKMKDTVQKLKNARQEVVEKYEIYGDSVDCLPSCQLEVQLYQKKIQDLSDNREKLASILKESLNLEDQIESDESELKKLKTEENSFKRLMIVKKEKLATAQFKINKKHEDVKQYKRTVIEDCNKVQEKRGAVYERVTTINQEIQKIKLGIQQLKDAAEREKLKSQEIFLNLKTALEKYHDGIEKAAEDSYAKIDEKTAELKRKMFKMST
partner: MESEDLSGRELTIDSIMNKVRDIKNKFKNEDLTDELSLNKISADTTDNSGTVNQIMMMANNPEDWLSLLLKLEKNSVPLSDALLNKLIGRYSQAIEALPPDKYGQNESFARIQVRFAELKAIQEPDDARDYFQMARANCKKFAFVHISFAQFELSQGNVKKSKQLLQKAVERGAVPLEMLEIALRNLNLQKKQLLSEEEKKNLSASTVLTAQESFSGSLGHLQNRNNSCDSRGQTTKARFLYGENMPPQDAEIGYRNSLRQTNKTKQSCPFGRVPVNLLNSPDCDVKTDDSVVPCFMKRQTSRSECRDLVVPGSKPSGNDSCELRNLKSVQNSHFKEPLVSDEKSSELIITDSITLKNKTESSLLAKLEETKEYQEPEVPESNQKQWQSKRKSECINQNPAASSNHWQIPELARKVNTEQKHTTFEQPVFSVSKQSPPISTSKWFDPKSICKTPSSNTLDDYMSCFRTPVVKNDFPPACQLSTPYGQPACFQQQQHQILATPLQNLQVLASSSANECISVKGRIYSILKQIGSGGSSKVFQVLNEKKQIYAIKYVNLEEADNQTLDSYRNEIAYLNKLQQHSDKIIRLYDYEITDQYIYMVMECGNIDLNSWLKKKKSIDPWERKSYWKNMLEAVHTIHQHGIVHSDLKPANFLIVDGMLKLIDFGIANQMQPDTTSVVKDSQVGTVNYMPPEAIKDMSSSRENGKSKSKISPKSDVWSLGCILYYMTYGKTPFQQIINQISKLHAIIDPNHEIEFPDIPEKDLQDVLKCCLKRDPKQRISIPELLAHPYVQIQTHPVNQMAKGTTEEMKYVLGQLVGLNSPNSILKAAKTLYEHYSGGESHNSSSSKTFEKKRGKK
B2: Kinetochore protein NDC80 homolog (Homo sapiens), O14777 (parent)
chain: MKRSSVSSGGAGRLSMQELRSQDVNKQGLYTPQTKEKPTFGKLSINKPTSERKVSLFGKRTSGHGSRNSQLGIFSSSEKIKDPRPLNDKAFIQQCIRQLCEFLTENGYAHNVSMKSLQAPSVKDFLKIFTFLYGFLCPSYELPDTKFEEEVPRIFKDLGYPFALSKSSMYTVGAPHTWPHIVAALVWLIDCIKIHTAMKESSPLFDDGQPWGEETEDGIMHNKLFLDYTIKCYESFMSGADSFDEMNAELQSKLKDLFNVDAFKLESLEAKNRALNEQIARLEQEREKEPNRLESLRKLKASLQGDVQKYQAYMSNLESHSAILDQKLNGLNEEIARVELECETIKQENTRLQNIIDNQKYSVADIERINHERNELQQTINKLTKDLEAEQQKLWNEELKYARGKEAIETQLAEYHKLARKLKLIPKGAENSKGYDFEIKFNPEAGANCLVKYRAQVYVPLKELLNETEEEINKALNKKMGLEDTLEQLNAMITESKRSVRTLKEEVQKLDDLYQQKIKEAEEEDEKCASELESLEKHKHLLESTVNQGLSEAMNELDAVQREYQLVVQTTTEERRKVGNNLQRLLEMVATHVGSVEKHLEEQIAKVDREYEECMSEDLSENIKEIRDKYEKKATLIKSSEE
partner: B1 partner

Variants of: B1
Settings: with TTK

| Variant | effect of a mutation on the interaction |
| --- | --- |
| R116E | decreasing interaction strength |
| H129A | decreasing interaction strength |
| D103K | decreasing interaction strength |
| F6A;P7A | disrupting interaction strength |
| K115E | decreasing interaction strength |
| N126A | disrupting interaction strength |

Variants of: B2
Settings: with TTK

| Variant | effect of a mutation on the interaction |
| --- | --- |
| K89E | decreasing interaction strength |
| K166E | decreasing interaction strength |
| K89E;K166E | decreasing interaction strength |
